Test results reported in the supplement of paper PMC11246515.
± gives the standard deviation of the averaged measurements.

Experiment: total protein half-life in vivo (active degradation + dilution); higher = more stable protein
[1] = E. coli NCM3722 delta-clpP delta-lon delta-hslV, growth: N-lim chemostat, doubling time 6 h
[2] = E. coli NCM3722 delta-hslV, growth: N-lim chemostat, doubling time 6 h
[3] = E. coli NCM3722 delta-lon, growth: N-lim chemostat, doubling time 6 h
[4] = E. coli NCM3722 delta-smpB, growth: N-lim chemostat, doubling time 6 h
[5] = wild type E. coli NCM3722, growth: C-lim chemostat, doubling time 3 h
[6] = wild type E. coli NCM3722, growth: C-lim chemostat, doubling time 6 h
[7] = wild type E. coli NCM3722, growth: C-lim chemostat, doubling time 12 h
[8] = wild type E. coli NCM3722, growth: N-lim chemostat, doubling time 6 h
[9] = wild type E. coli NCM3722, growth: N-lim chemostat, doubling time 12 h
[10] = wild type E. coli NCM3722, growth: P-lim chemostat, doubling time 6 h
[11] = wild type E. coli NCM3722, growth: P-lim chemostat, doubling time 12 h
[12] = E. coli NCM3722 delta-clpP, growth: N-lim chemostat, doubling time 6 h

Sequence	total protein half-life in vivo [1]	total protein half-life in vivo [2]	total protein half-life in vivo [3]	total protein half-life in vivo [4]	total protein half-life in vivo [5]	total protein half-life in vivo [6]	total protein half-life in vivo [7]	total protein half-life in vivo [8]	total protein half-life in vivo [9]	total protein half-life in vivo [10]	total protein half-life in vivo [11]	total protein half-life in vivo [12]
MLTVIAEIRTRPGQHHRQAVLDQFAKIVPTVLKEEGCHGYAPMVDCAAGVSFQSMAPDSIVMIEQWESIAHLEAHLQTPHMKAYSEAVKGDVLEMNIRILQPGI [P0ADU2]	5.001 ± 0.017 h	4.57 ± 0.38 h	5.31 ± 0.5 h	4.72 ± 0.06 h	3.14 ± 0.34 h	5.35 ± 0.099 h	10.4 ± 0.39 h	4.36 ± 0.28 h	7 ± 0.33 h	5.84 ± 0.12 h	11.6 ± 0.82 h	–
MKPLLDVLMILDALEKEGSFAAASAKLYKTPSALSYTVHKLESDLNIQLLDRSGHRAKFTRTGKMLLEKGREVLHTVRELEKQAIKLHEGWENELVIGVDDTFPFSLLAPLIEAFYQHHSVTRLKFINGVLGGSWDALTQGRADIIVGAMHEPPSSSEFGFSRLGDLEQVFAVAPHHPLALEEEPLNRRIIKRYRAIVVGDTAQAGASTASQLLDEQEAITVFDFKTKLELQISGLGCGYLPRYLAQRFLDSGALIEKKVVAQTLFEPVWIGWNEQTAGLASGWWRDEILANSAIAGVYAKSDDGKSAI	5.91 ± 0.24 h	–	–	–	–	–	–	–	–	–	–	–
MHSTEVQAKPLFSWKALGWALLYFWFFSTLLQAIIYISGYSGTNGIRDSLLFSSLWLIPVFLFPKRIKIIAAVIGVVLWAASLAALCYYVIYGQEFSQSVLFVMFETNTNEASEYLSQYFSLKIVLIALAYTAVAVLLWTRLRPVYIPKPWRYVVSFALLYGLILHPIAMNTFIKNKPFEKTLDNLASRMEPAAPWQFLTGYYQYRQQLNSLTKLLNENNALPPLANFKDESGNEPRTLVLVIGESTQRGRMSLYGYPRETTPELDALHKTDPNLTVFNNVVTSRPYTIEILQQALTFANEKNPDLYLTQPSLMNMMKQAGYKTFWITNQQTMTARNTMLTVFSRQTDKQYYMNQQRTQSAREYDTNVLKPFQEVLNDPAPKKLIIVHLLGTHIKYKYRYPENQGKFDGNTDHVPPGLNAEELESYNDYDNANLYNDHVVASLIKDFKAANPNGFLVYFSDHGEEVYDTPPHKTQGRNEDNPTRHMYTIPFLLWTSEKWQATHPRDFSQDVDRKYSLAELIHTWSDLAGLSYDGYDPTRSVVNPQFKETTRWIGNPYKKNALIDYDTLPYGDQVGNQ [P0CB39]	6.57 ± 0.15 h	–	6.52 ± 1.3 h	6.49 ± 0.29 h	3.504 ± 0.028 h	6.41 ± 0.11 h	13 ± 0.88 h	6.03 ± 0.069 h	13 ± 0.74 h	6.4 ± 0.18 h	13.1 ± 0.49 h	7 ± 0.21 h
MELHCPQCQHVLDQDNGHARCRSCGEFIEMKALCPDCHQPLQVLKACGAVDYFCQHGHGLISKKRVEFVLA	5.52 ± 2.3 h	–	–	–	–	–	4.37 h	6.43 h	5.69 h	–	> 16 h	4.63 h
MPSIRLADLAQQLDAELHGDGDIVITGVASMQSAQTGHITFMVNPKYREHLGLCQASAVVMTQDDLPFAKSAALVVKNPYLTYARMAQILDTTPQPAQNIAPSAVIDATAKLGNNVSIGANAVIESGVELGDNVIIGAGCFVGKNSKIGAGSRLWANVTIYHEIQIGQNCLIQSGTVVGADGFGYANDRGNWVKIPQIGRVIIGDRVEIGACTTIDRGALDDTIIGNGVIIDNQCQIAHNVVIGDNTAVAGGVIMAGSLKIGRYCMIGGASVINGHMEICDKVTVTGMGMVMRPITEPGVYSSGIPLQPNKVWRKTAALVMNIDDMSKRLKSLERKVNQQD	6.07 ± 0.77 h	5.56 ± 0.47 h	5.67 ± 0.27 h	5.17 ± 0.14 h	2.94 ± 0.27 h	5.58 ± 0.18 h	12.2 ± 1.4 h	5.06 ± 0.12 h	9.29 ± 0.54 h	5.9 ± 0.48 h	12.7 ± 0.47 h	6.31 ± 1.8 h
MPLSPYLSFAGNCSDAIAYYQRTLGAELLYKISFGEMPKSAQDSAENCPSGMQFPDTAIAHANVRIAGSDIMMSDAMPSGKASYSGFTLVLDSQQVEEGKRWFDNLAANGKIEMAWQETFWAHGFGKVTDKFGVPWMINVVKQQPTQ	4.69 ± 0.16 h	5.15 ± 1.1 h	6.806 ± 0.035 h	4.57 ± 0.27 h	3.13 ± 0.35 h	5.29 ± 0.48 h	10.04 ± 0.096 h	4.31 ± 0.37 h	8.56 ± 1.2 h	5.88 ± 0.59 h	12.4 ± 0.98 h	4.35 ± 0.15 h
MTQPVLDIQQLHLSFPGFNGDVHALNNVSLQINRGEIVGLVGESGSGKSVTAMLIMRLLPTGSYCVHRGQISLLGEDVLNAREKQLRQWRGARVAMIFQEPMTALNPTRRIGLQMMDVIRHHQPISRREARAKAIDLLEEMQIPDAVEVMSRYPFELSGGMRQRVMIALAFSCEPQLIIADEPTTALDVTVQLQVLRLLKHKARASGTAVLFISHDMAVVSQLCDSVYVMYAGSVIESGVTADVIHHPRHPYTIGLLQCAPEHGVPRQLLPAIPGTVPNLTHLPDGCAFRDRCYAAGAQCENVPALTACGDNNQRCACWYPQQEVISV	6.47 ± 1.1 h	4.03 ± 0.098 h	2.24 h	4.53 ± 0.11 h	2.28 ± 0.3 h	3.41 ± 0.54 h	–	4.02 ± 0.26 h	7.62 ± 0.58 h	–	–	3.49 ± 0.17 h
MNNREKEILAILRRNPLIQQNEIADMLQISRSRVAAHIMDLMRKGRIKGKGYILTEQEYCVVVGTINMDIRGMADIRYPQSASHPGTIHCSAGGVGRNIAHNLALLGRDVHLLSVIGDDFYGEMLLEETRRAGVNVSGCVRLHGQSTSTYLAIANRDDQTVLAINDTHLLEQLTPQLLNGSRDLLRHAGVVLADCNLTAEALEWVFTLADEIPVFVDTVSEFKAGKIKHWLAHIHTLKPTLPELEILWGQAITSDADRNTAVNALHQQGVQQLFVYLPDESVYCSEKDGEQFLLTAPAHTTVDSFGADDGFMAGLVYSFLEGYSFRDSARFAVACAAISRASGSLNNPTLSADNALSLVPMV	5.83 ± 0.3 h	–	–	–	–	–	–	–	–	–	–	–
